Measurements published in patent US20190134153A1, “IMMUNOMODULATORY EFFECT OF INHALED KINASE INHIBITOR PEPTIDES IN LUNG” (MOERAE MATRIX, INC., priority 2017, published 2019).

Key:
Test in all cases: Kinase Profiling Assay
Assay type in all cases: biochemical
Conditions in all cases: 100 μM
ASK1(h) = target: T1, ASK1(h) (Homo sapiens, UniProt Q99683)
T1 sequence (Q99683 1-1374): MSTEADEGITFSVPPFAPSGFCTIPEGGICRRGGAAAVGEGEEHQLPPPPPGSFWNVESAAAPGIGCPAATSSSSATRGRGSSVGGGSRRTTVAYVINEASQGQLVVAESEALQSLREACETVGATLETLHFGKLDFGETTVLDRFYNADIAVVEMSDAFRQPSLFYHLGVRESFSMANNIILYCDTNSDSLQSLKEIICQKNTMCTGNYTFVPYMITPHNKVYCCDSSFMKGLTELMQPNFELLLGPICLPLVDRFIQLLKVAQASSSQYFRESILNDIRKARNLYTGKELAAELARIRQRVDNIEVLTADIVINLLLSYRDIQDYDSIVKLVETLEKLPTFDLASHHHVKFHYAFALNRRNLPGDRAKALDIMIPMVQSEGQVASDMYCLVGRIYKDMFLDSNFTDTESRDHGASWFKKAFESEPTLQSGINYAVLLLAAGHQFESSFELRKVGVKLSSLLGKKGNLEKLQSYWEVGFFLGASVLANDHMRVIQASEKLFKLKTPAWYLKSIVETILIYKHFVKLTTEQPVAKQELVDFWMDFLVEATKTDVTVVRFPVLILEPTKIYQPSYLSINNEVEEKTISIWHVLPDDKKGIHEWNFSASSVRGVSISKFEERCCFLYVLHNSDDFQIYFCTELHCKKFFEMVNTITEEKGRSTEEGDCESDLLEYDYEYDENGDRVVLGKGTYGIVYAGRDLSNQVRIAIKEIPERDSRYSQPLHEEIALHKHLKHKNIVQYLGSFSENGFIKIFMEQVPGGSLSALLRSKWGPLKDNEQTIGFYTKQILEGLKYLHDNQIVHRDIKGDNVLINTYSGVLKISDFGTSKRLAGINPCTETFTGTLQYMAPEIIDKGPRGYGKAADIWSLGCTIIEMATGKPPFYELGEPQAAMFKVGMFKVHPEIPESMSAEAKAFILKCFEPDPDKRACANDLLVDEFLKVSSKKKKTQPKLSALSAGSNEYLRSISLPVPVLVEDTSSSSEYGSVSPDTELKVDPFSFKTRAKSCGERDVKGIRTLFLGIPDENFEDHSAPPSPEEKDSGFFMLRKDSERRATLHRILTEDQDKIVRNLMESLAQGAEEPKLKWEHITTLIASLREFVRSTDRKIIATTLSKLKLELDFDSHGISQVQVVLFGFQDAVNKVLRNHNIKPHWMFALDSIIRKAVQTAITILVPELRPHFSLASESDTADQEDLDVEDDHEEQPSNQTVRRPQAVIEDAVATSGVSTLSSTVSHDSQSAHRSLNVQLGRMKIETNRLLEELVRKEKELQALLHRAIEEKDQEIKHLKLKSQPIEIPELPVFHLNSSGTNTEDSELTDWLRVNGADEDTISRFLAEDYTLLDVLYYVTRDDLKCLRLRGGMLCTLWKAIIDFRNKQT

Axl(h) = Axl(h) (Homo sapiens, UniProt P30530)
CaMKIδ(h) = CaMKIδ(h) (Homo sapiens, UniProt Q8IU85)
Chain of CaMKIδ(h) (Q8IU85 whole entry): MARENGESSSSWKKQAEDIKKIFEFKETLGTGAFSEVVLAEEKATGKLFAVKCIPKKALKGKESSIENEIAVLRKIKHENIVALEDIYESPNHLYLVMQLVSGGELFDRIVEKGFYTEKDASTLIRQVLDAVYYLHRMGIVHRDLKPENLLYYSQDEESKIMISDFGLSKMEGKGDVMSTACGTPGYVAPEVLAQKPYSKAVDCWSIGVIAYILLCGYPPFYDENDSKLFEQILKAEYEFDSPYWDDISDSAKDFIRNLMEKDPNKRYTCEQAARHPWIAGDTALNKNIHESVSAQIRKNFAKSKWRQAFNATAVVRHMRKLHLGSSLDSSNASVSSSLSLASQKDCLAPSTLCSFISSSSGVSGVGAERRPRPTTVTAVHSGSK

CDK5/p35(h) = CDK5/p35(h) (Homo sapiens, UniProt Q00535)
Chain of CDK5/p35(h) (Q00535 whole entry): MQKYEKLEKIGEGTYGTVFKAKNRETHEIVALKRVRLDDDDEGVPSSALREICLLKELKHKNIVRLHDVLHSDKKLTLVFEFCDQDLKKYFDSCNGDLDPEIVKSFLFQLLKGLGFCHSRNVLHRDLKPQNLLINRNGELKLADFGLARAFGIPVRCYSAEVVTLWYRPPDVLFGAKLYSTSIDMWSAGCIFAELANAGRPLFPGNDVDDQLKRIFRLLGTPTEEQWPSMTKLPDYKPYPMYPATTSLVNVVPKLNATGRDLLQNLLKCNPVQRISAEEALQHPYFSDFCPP
Chain of CDK5/p35(h) (Q15078 whole entry partner): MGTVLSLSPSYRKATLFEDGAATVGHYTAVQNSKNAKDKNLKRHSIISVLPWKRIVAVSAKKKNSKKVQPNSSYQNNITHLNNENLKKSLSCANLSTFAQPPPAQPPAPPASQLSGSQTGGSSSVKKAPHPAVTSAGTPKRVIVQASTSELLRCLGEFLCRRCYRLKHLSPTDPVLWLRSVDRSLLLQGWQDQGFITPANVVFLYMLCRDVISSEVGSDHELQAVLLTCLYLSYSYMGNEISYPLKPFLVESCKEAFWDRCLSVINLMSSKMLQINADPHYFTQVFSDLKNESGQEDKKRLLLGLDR

FGFR1(h) = FGFR1(h) (Homo sapiens, UniProt P11362)
Chain of FGFR1(h) (P11362 22-822): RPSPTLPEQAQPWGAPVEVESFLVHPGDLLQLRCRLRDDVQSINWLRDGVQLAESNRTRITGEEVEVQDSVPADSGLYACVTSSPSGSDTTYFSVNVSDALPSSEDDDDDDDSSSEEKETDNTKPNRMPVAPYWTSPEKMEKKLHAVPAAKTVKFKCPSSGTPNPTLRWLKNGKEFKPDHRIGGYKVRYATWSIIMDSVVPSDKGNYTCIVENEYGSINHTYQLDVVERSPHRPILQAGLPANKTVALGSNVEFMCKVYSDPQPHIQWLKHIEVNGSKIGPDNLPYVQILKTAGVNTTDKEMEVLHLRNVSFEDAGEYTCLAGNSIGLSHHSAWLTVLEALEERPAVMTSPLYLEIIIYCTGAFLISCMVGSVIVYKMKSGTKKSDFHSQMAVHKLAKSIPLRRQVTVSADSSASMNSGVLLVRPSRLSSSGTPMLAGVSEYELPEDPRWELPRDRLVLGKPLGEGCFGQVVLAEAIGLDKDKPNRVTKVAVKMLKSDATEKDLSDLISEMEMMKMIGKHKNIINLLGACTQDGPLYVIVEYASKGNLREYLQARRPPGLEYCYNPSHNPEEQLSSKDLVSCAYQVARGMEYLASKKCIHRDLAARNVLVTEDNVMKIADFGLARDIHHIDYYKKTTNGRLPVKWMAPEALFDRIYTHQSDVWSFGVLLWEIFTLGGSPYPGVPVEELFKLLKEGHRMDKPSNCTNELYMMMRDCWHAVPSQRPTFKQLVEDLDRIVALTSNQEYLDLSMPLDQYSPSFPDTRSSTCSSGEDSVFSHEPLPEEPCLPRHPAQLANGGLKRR

FGFR2(h) = FGFR2(h) (Homo sapiens, UniProt P21802)
Flt3(D835Y)(h) = Flt3(D835Y)(h) (Homo sapiens, UniProt P36888, D835Y)
JNK3(h) = JNK3(h) (Homo sapiens, UniProt P53779)
Chain of JNK3(h) (P53779 whole entry): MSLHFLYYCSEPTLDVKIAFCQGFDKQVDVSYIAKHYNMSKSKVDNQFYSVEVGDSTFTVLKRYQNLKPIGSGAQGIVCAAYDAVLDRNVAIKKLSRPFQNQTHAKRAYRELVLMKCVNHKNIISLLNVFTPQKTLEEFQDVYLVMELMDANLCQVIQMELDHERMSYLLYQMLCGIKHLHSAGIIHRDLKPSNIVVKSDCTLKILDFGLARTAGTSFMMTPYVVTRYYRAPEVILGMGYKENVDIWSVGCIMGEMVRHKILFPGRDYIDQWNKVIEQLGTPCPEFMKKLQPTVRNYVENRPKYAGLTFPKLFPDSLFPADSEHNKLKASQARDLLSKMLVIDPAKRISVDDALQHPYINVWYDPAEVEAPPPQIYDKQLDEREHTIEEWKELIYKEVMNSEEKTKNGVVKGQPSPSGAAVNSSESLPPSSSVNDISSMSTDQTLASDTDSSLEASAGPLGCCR

MELK(h) = MELK(h) (Homo sapiens, UniProt Q14680)
Chain of MELK(h) (Q14680 whole entry): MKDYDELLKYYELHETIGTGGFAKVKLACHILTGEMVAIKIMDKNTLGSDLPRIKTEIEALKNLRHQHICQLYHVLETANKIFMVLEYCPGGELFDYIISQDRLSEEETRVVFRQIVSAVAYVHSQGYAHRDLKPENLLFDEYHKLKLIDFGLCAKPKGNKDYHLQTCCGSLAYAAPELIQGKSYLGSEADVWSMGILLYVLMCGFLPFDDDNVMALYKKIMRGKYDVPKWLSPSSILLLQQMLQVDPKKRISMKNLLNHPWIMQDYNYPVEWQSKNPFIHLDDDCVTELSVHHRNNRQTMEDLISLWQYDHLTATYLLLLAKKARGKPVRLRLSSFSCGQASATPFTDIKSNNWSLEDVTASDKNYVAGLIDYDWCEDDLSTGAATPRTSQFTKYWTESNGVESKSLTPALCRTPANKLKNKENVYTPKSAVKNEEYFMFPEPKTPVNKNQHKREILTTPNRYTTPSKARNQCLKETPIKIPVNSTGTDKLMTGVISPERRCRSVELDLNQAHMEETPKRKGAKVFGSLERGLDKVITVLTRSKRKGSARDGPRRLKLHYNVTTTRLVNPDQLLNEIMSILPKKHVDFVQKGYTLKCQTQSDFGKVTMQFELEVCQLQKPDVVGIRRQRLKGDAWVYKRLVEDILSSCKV

Met(Y1248C)(h) = Met(Y1248C)(h) (Homo sapiens, UniProt P08581, Y1230C)
PRAK(h) = target: T2, PRAK(h) (Homo sapiens, UniProt Q8IW41)
T2 sequence (Q8IW41 1-473): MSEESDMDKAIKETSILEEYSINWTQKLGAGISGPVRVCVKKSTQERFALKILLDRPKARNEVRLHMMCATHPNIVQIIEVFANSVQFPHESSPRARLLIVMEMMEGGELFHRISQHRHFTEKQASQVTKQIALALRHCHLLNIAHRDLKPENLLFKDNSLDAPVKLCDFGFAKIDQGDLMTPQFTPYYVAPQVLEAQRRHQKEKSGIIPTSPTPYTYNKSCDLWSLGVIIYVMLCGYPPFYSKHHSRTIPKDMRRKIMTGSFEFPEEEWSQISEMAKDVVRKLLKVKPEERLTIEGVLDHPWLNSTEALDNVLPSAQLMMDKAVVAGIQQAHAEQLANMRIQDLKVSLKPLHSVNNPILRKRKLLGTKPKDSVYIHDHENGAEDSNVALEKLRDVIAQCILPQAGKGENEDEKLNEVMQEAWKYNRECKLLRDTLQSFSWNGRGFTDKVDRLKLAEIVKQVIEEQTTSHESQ

Rsk1(h) = Rsk1(h) (Homo sapiens, UniProt Q15418)
Chain of Rsk1(h) (Q15418 whole entry): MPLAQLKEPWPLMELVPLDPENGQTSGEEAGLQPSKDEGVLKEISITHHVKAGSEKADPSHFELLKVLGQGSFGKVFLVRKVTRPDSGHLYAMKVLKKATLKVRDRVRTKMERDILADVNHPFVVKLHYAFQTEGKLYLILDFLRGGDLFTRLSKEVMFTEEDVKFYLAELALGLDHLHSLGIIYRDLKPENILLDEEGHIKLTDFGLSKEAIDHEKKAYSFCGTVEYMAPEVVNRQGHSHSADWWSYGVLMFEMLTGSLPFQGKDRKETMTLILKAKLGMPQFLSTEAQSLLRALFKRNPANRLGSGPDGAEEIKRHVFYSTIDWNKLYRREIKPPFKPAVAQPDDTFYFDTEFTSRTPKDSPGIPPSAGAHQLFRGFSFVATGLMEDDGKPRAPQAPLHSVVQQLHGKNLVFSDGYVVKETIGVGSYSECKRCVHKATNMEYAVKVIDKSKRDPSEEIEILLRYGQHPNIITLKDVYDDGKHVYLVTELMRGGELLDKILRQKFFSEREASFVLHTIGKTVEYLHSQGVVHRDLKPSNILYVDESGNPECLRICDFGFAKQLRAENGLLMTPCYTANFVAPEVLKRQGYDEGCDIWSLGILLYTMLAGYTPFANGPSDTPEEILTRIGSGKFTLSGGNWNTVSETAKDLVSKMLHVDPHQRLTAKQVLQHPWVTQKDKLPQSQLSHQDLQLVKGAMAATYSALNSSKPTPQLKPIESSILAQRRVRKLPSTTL

TAK1(h) = target: T3, TAK1(h) (Homo sapiens, UniProt O43318)
T3 sequence (O43318 1-303 limits assumed): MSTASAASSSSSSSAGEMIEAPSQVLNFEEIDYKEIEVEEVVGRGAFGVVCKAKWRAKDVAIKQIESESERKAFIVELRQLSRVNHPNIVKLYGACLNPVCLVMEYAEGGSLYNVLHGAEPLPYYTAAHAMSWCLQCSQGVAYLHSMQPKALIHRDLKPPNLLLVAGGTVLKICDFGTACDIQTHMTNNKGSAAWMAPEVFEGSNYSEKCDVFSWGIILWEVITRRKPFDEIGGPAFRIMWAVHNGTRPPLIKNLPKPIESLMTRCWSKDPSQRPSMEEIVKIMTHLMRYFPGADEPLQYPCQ

FAKLAARLYRKALARQLGVAA [MMI-0300] was tested, and the “% activity” value (ASK1(h)) was 80%, the “% activity” value (Axl(h)) was 52% and the “% activity” value (CaMKIδ(h)) was 10%. For the same sequence, the “% activity” value (CDK5/p35(h)) was 79%, the “% activity” value (FGFR1(h)) was 55% and the “% activity” value (FGFR2(h)) was 14%. For the same sequence, the “% activity” value (Flt3(D835Y)(h)) was 80%, the “% activity” value (JNK3(h)) was 89% and the “% activity” value (MELK(h)) was 16%. The “% activity” value (Met(Y1248C)(h)) was 84%, the “% activity” value (PRAK(h)) was 128% and the “% activity” value (Rsk1(h)) was 46%. The “% activity” value (TAK1(h)) was 122%.

For HRRIKAWLKKIKALARQLGVAA [MMI-0500], the “% activity” value (ASK1(h)) was −4%, the “% activity” value (Axl(h)) was 12% and the “% activity” value (CaMKIδ(h)) was 0%. For the same sequence, the “% activity” value (CDK5/p35(h)) was 59%, the “% activity” value (FGFR1(h)) was 18% and the “% activity” value (FGFR2(h)) was 12%. The “% activity” value (Flt3(D835Y)(h)) was 65%, the “% activity” value (JNK3(h)) was 171% and the “% activity” value (MELK(h)) was 0%. The “% activity” value (Met(Y1248C)(h)) was 73%, the “% activity” value (PRAK(h)) was 95% and the “% activity” value (Rsk1(h)) was 34%.

For KAFAKLAARLYRKALARQLGVAA [MMI-0400], the “% activity” value (ASK1(h)) was 69%, the “% activity” value (Axl(h)) was 41% and the “% activity” value (CaMKIδ(h)) was 17%. The “% activity” value (CDK5/p35(h)) was 76%, the “% activity” value (FGFR1(h)) was 59% and the “% activity” value (FGFR2(h)) was 18%. The “% activity” value (Flt3(D835Y)(h)) was 71%, the “% activity” value (JNK3(h)) was 70% and the “% activity” value (MELK(h)) was 17%. The “% activity” value (Met(Y1248C)(h)) was 36%, the “% activity” value (PRAK(h)) was 118% and the “% activity” value (Rsk1(h)) was 54%. The “% activity” value (TAK1(h)) was 177%.

In the case of YARAAARQARAKALNRQLGVA [MMI-0200], the “% activity” value (ASK1(h)) is reported as 101%, the “% activity” value (Axl(h)) is reported as 99% and the “% activity” value (CaMKIδ(h)) is reported as 47%. For the same sequence, the “% activity” value (CDK5/p35(h)) was 92%, the “% activity” value (FGFR1(h)) was 97% and the “% activity” value (FGFR2(h)) was 73%. For the same sequence, the “% activity” value (JNK3(h)) was 90%, the “% activity” value (MELK(h)) was 59% and the “% activity” value (Met(Y1248C)(h)) was 141%. The “% activity” value (TAK1(h)) was 124%.
